# Experimental data as given in patent publication US20190218479A1, “Stabilized Liquid Peroxide Compositions” (Novozymes A/S, priority 2016, published 2019).
# Tests used:
# Format in all cases: physicochemical
# [1] = Stability of Subtilisin1 and Subtilisin2 in the liquid peroxide composition of Table 1 (residual protease activity, N,N-dimethylcasein/TNBS); details: for % Subtilisin residual activity after 4 weeks: liquid peroxide composition in Table 1 (0.8% H2O2, pH 7.0)
# Description: (§1) The compositions were prepared as shown in the examples and samples stored in closed vials for storage. Residual activity was measured by comparing activity in a stored sample at the time of taken out of incubation without freezing and comparing activity to a freshly prepared sample without peroxide and dividing activity in the stored sample with activity in the fresh sample.
# (§2) Activity analysis is performed by analysing protease activity by hydrolysis of N,N-dimethylcasein to produce a carboxylic acid and a primary amine compounds. The primary amines that are formed react, under alkaline conditions, with tri-nitrobenzenesulfonic acid (TNBS) to form a colored complex. The amount of colored complex that forms over the fixed reaction period at a constant temperature (530 seconds at 40° C.; complex absorbance is measured at 405 nm) is related to the amount of active protease present in the sample. The amount of colored product complex produced is compared to a standard curve based on known protease concentrations to calculate the amount of active protease in the detergent sample. The amount of protease activity at a specific time point is compared to the t=0 activity level to calculate the % active protease remaining.
# Subtilisin1 [2] = target: T1, Subtilisin1 (Lederbergia lenta, UniProt P29600, M216S); assay: Residual activity of Subtilisin1 after storage in peroxide model detergents with or without subtilisin stabilizers (N,N-dimethylcasein/TNBS)
# [3] = Residual hydrogen peroxide after storage, permanganate titration
# Description: Residual hydrogen peroxide (H2O2) was measured by permanganate titration (reduction of potassium permanganate by hydrogen peroxide in sulfuric acid).
# Subtilisin1 [4] = target: T1, Subtilisin1; assay: Residual activity of Subtilisin1 after storage in peroxide model detergents with or without subtilisin stabilizers (N,N-dimethylcasein/TNBS); remark: listed apart in the source
# Source text: Chemicals used as buffers and substrates were commercial products of at least reagent grade. Subtilisin1 has the amino acid sequence as shown in SEQ ID NO: 2, which is a subtilisin having a M216 substitution according to the invention. Subtilisin2 has the amino acid sequence as shown in SEQ ID NO: 1, which is a reference subtilisin not covered by the invention. The stock solution of each subtilisin contains 4.4% w/w of active enzyme protein. Stabilizer1: Cbz-Gly-Ala-Tyr-H (C-terminal aldehyde), wherein Cbz is benzyloxycarbonyl; which is a subtilisin stabilizer according to the invention. When used in the examples below, Stabilizer1 was added to the subtilisin stock solution at a concentration of 0.28% w/w. Stabilizer2: Cbz-Gly-Ala-NHCH(CH2C6H4pOH)CH(OH)(OSO3)Na (hydrosulfite adduct of a C-terminal aldehyde) wherein Cbz is benzyloxycarbonyl; which is a subtilisin stabilizer according to the invention. When used in the examples below, Stabilizer2 was added to the subtilisin stock solution at a concentration of 0.35% w/w. Stabilizer3: MeOCO-Val-Ala-Leu-H (C-terminal aldehyde). When used in the examples below, Stabilizer3 was added to the subtilisin stock solution at a concentration of 0.28% w/w. Stabilizer4: 4-formyl-phenyl-boronic acid (4-FPBA); which is a reference protease stabilizer not covered by the invention. When used in the examples below, Stabilizer4 was added to the subtilisin stock solution at a concentration of 3.4% w/w.
# as §1, §2
# This study examined Subtilisin1 stability in the presence of hydrogen peroxide, with and without subtilisin stabilizers (Stabilizer4 and Stabilizer2) in two different model detergents at pH 7 and 9.
molecule,measurement,setting,value
"Subtilisin1: subtilisin with amino acid sequence SEQ ID NO: 2, having a M216 substitution according to the invention (protein, Variant of SEQ ID NO 1) AQSVPWGISRVQAPAAHNRGLTGSGVKVAVLDTGISTHPDLNIRGGASFVPGEPSTQDGNGHGTHVAGTIAALNNSIGVLGVAPSAELYAVKVLGASGSGSVSSIAQGLEWAGNNGMHVANLSLGSPSPSATLEQAVNSATSRGVLVVAASGNSGAGSISYPARYANAMAVGATDQNNNRASFSQYGAGLDIVAPGVNVQSTYPGSTYASLNGTSSATPHVAGAAALVKQKNPSWSNVQIRNHLKNTATSLGSTNLYGSGLVNAEAATR",% Subtilisin residual activity after 4 weeks,[1]; 22° C.,81%
same,% Subtilisin residual activity after 4 weeks,[1]; 30° C.,61%
same,% Subtilisin residual activity after 4 weeks,[1]; 37° C.,46%
same,"stability in the liquid peroxide composition, compared with Subtilisin2","[1]; liquid peroxide composition in Table 1, summary of Table 2",much better
same,Residual activity after storage for 2 weeks at 30° C.,"Subtilisin1 [2]; Subtilisin1 in “Mix Laundry” (Table 19, pH 7.5) no H2O2, no sodium salicylate, no polyDADMAC",73%
same,Residual activity after storage for 2 weeks at 30° C.,"Subtilisin1 [2]; Subtilisin1 in “Mix Laundry” (Table 19, pH 7.5) with 1% H2O2, with sodium salicylate, with polyDADMAC",42%
same,Residual activity after storage for 2 weeks at 37° C.,"Subtilisin1 [2]; Subtilisin1 in “NI pretreat” (Table 19, pH 7.0) with 1% H2O2, with sodium salicylate, with polyDADMAC",38%
same,Residual activity after storage for 2 weeks at 37° C.,"Subtilisin1 [2]; Subtilisin1 in “NI pretreat” (Table 19, pH 7.0) without H2O2, no sodium salicylate, no polyDADMAC",82%
same,Residual H2O2 after 4 weeks,"[3]; liquid peroxide composition in Table 1, 22° C.",99.0%
same,Residual H2O2 after 4 weeks,"[3]; liquid peroxide composition in Table 1, 30° C.",98.7%
same,Residual H2O2 after 4 weeks,"[3]; liquid peroxide composition in Table 1, 37° C.",97.8%
same,Residual H2O2 (after storage),"[3]; nonionic laundry detergent in Table 7, relative to initially added H2O2 = 1%, 22° C., pH 7",95%
same,Residual H2O2 (after storage),"[3]; nonionic laundry detergent in Table 7, relative to initially added H2O2 = 1%, 22° C., pH 9",95%
same,Residual H2O2 (after storage),"[3]; nonionic laundry detergent in Table 7, relative to initially added H2O2 = 1%, 30° C., pH 7",94%
same,Residual H2O2 (after storage),"[3]; nonionic laundry detergent in Table 7, relative to initially added H2O2 = 1%, 30° C., pH 9",94%
same,Residual H2O2 (after storage),"[3]; nonionic laundry detergent in Table 7, relative to initially added H2O2 = 1%, 37° C., pH 7",92%
same,Residual H2O2 (after storage),"[3]; nonionic laundry detergent in Table 7, relative to initially added H2O2 = 1%, 37° C., pH 9",91%
same,Residual H2O2 (after storage),"[3]; nonionic pretreatment detergent in Table 4, relative to initially added H2O2 = 1%, 22° C., pH 7",≥100%
same,Residual H2O2 (after storage),"[3]; nonionic pretreatment detergent in Table 4, relative to initially added H2O2 = 1%, 22° C., pH 9",93%
same,Residual H2O2 (after storage),"[3]; nonionic pretreatment detergent in Table 4, relative to initially added H2O2 = 1%, 30° C., pH 7",≥100%
same,Residual H2O2 (after storage),"[3]; nonionic pretreatment detergent in Table 4, relative to initially added H2O2 = 1%, 30° C., pH 9",91%
same,Residual H2O2 (after storage),"[3]; nonionic pretreatment detergent in Table 4, relative to initially added H2O2 = 1%, 37° C., pH 7",≥100%
same,Residual H2O2 (after storage),"[3]; nonionic pretreatment detergent in Table 4, relative to initially added H2O2 = 1%, 37° C., pH 9",90%
same,Residual H2O2 (after storage),"[3]; nonionic/anionic laundry detergent in Table 13, relative to initially added H2O2 = 1%, 22° C., pH 7",101%
same,Residual H2O2 (after storage),"[3]; nonionic/anionic laundry detergent in Table 13, relative to initially added H2O2 = 1%, 22° C., pH 9",95%
same,Residual H2O2 (after storage),"[3]; nonionic/anionic laundry detergent in Table 13, relative to initially added H2O2 = 1%, 30° C., pH 7",99%
same,Residual H2O2 (after storage),"[3]; nonionic/anionic laundry detergent in Table 13, relative to initially added H2O2 = 1%, 30° C., pH 9",92%
same,Residual H2O2 (after storage),"[3]; nonionic/anionic laundry detergent in Table 13, relative to initially added H2O2 = 1%, 37° C., pH 7",101%
same,Residual H2O2 (after storage),"[3]; nonionic/anionic laundry detergent in Table 13, relative to initially added H2O2 = 1%, 37° C., pH 9",97%
same,Residual H2O2 (after storage),"[3]; nonionic/anionic pretreatment detergent in Table 10, relative to initially added H2O2 = 1%, 22° C., pH 7",88%
same,Residual H2O2 (after storage),"[3]; nonionic/anionic pretreatment detergent in Table 10, relative to initially added H2O2 = 1%, 30° C., pH 7",86%
same,Residual H2O2 (after storage),"[3]; nonionic/anionic pretreatment detergent in Table 10, relative to initially added H2O2 = 1%, 37° C., pH 7",100%
same,Residual H2O2 (after storage),"[3]; nonionic/anionic pretreatment detergent in Table 10, relative to initially added H2O2 = 1%, 37° C., pH 9",95%
same,Residual H2O2 (after storage),"[3]; nonionic/anionic pretreatment detergent in Table 16, relative to initially added H2O2 = 2%, 22° C., pH 7",87%
same,Residual H2O2 (after storage),"[3]; nonionic/anionic pretreatment detergent in Table 16, relative to initially added H2O2 = 2%, 30° C., pH 7",84%
same,Residual H2O2 (after storage),"[3]; nonionic/anionic pretreatment detergent in Table 16, relative to initially added H2O2 = 2%, 37° C., pH 7",90%
same,Residual H2O2 (after storage),"[3]; nonionic/anionic pretreatment detergent in Table 16, relative to initially added H2O2 = 2%, 37° C., pH 9",92%
same,Residual activity of Subtilisin1 after storage,"Subtilisin1 [4]; liquid nonionic laundry detergent in Table 7 (1.0% H2O2), 22° C., pH 7",63%
same,Residual activity of Subtilisin1 after storage,"Subtilisin1 [4]; liquid nonionic laundry detergent in Table 7 (1.0% H2O2), 22° C., pH 9",75%
same,Residual activity of Subtilisin1 after storage,"Subtilisin1 [4]; liquid nonionic laundry detergent in Table 7 (1.0% H2O2), 30° C., pH 7",47%
same,Residual activity of Subtilisin1 after storage,"Subtilisin1 [4]; liquid nonionic laundry detergent in Table 7 (1.0% H2O2), 30° C., pH 9",68%
same,Residual activity of Subtilisin1 after storage,"Subtilisin1 [4]; liquid nonionic laundry detergent in Table 7 (1.0% H2O2), 37° C., pH 7",30%
same,Residual activity of Subtilisin1 after storage,"Subtilisin1 [4]; liquid nonionic laundry detergent in Table 7 (1.0% H2O2), 37° C., pH 9",45%
same,Residual activity of Subtilisin1 after storage,"Subtilisin1 [4]; liquid nonionic pretreatment detergent in Table 4 (1.0% H2O2), 22° C., pH 7",85%
same,Residual activity of Subtilisin1 after storage,"Subtilisin1 [4]; liquid nonionic pretreatment detergent in Table 4 (1.0% H2O2), 22° C., pH 9",40%
same,Residual activity of Subtilisin1 after storage,"Subtilisin1 [4]; liquid nonionic pretreatment detergent in Table 4 (1.0% H2O2), 30° C., pH 7",65%
same,Residual activity of Subtilisin1 after storage,"Subtilisin1 [4]; liquid nonionic pretreatment detergent in Table 4 (1.0% H2O2), 30° C., pH 9",19%
same,Residual activity of Subtilisin1 after storage,"Subtilisin1 [4]; liquid nonionic pretreatment detergent in Table 4 (1.0% H2O2), 37° C., pH 7",44%
same,Residual activity of Subtilisin1 after storage,"Subtilisin1 [4]; liquid nonionic pretreatment detergent in Table 4 (1.0% H2O2), 37° C., pH 9",12%
same,Residual activity of Subtilisin1 after storage,"Subtilisin1 [4]; liquid nonionic/anionic laundry detergent in Table 13 (1.0% H2O2), 22° C., pH 7",84%
same,Residual activity of Subtilisin1 after storage,"Subtilisin1 [4]; liquid nonionic/anionic laundry detergent in Table 13 (1.0% H2O2), 22° C., pH 9",63%
same,Residual activity of Subtilisin1 after storage,"Subtilisin1 [4]; liquid nonionic/anionic laundry detergent in Table 13 (1.0% H2O2), 30° C., pH 7",62%
same,Residual activity of Subtilisin1 after storage,"Subtilisin1 [4]; liquid nonionic/anionic laundry detergent in Table 13 (1.0% H2O2), 30° C., pH 9",34%
same,Residual activity of Subtilisin1 after storage,"Subtilisin1 [4]; liquid nonionic/anionic laundry detergent in Table 13 (1.0% H2O2), 37° C., pH 7",40%
same,Residual activity of Subtilisin1 after storage,"Subtilisin1 [4]; liquid nonionic/anionic laundry detergent in Table 13 (1.0% H2O2), 37° C., pH 9",23%
same,Residual activity of Subtilisin1 after storage,"Subtilisin1 [4]; liquid nonionic/anionic pretreatment detergent in Table 10 (1.0% H2O2), 22° C., pH 7",79%
same,Residual activity of Subtilisin1 after storage,"Subtilisin1 [4]; liquid nonionic/anionic pretreatment detergent in Table 10 (1.0% H2O2), 22° C., pH 9",57%
same,Residual activity of Subtilisin1 after storage,"Subtilisin1 [4]; liquid nonionic/anionic pretreatment detergent in Table 10 (1.0% H2O2), 30° C., pH 7",66%
same,Residual activity of Subtilisin1 after storage,"Subtilisin1 [4]; liquid nonionic/anionic pretreatment detergent in Table 10 (1.0% H2O2), 30° C., pH 9",47%
same,Residual activity of Subtilisin1 after storage,"Subtilisin1 [4]; liquid nonionic/anionic pretreatment detergent in Table 10 (1.0% H2O2), 37° C., pH 7",52%
same,Residual activity of Subtilisin1 after storage,"Subtilisin1 [4]; liquid nonionic/anionic pretreatment detergent in Table 10 (1.0% H2O2), 37° C., pH 9",29%
same,Residual activity of Subtilisin1 after storage,"Subtilisin1 [4]; liquid nonionic/anionic pretreatment detergent in Table 16 (2.0% H2O2), 22° C., pH 7",85%
same,Residual activity of Subtilisin1 after storage,"Subtilisin1 [4]; liquid nonionic/anionic pretreatment detergent in Table 16 (2.0% H2O2), 22° C., pH 9",30%
same,Residual activity of Subtilisin1 after storage,"Subtilisin1 [4]; liquid nonionic/anionic pretreatment detergent in Table 16 (2.0% H2O2), 30° C., pH 7",69%
same,Residual activity of Subtilisin1 after storage,"Subtilisin1 [4]; liquid nonionic/anionic pretreatment detergent in Table 16 (2.0% H2O2), 30° C., pH 9",12%
same,Residual activity of Subtilisin1 after storage,"Subtilisin1 [4]; liquid nonionic/anionic pretreatment detergent in Table 16 (2.0% H2O2), 37° C., pH 7",50%
same,Residual activity of Subtilisin1 after storage,"Subtilisin1 [4]; liquid nonionic/anionic pretreatment detergent in Table 16 (2.0% H2O2), 37° C., pH 9",5%
